Laboratory results as given in article PMC13364712, “Evolutionarily conserved short linear motifs drive actin filament binding” (Nature Cell Biology, 2026).

Biological target: actin filaments (actin from Gallus gallus skeletal muscle) (Gallus gallus (chicken), UniProt P68139 1-377)
Assay: co-sedimentation; 4 µM EGFP–SFM peptide with 0–200 µM actin filaments in F buffer, 1 h at room temperature, 100,000g for 30 min; pellet read by anti-EGFP western blot; one-site specific binding fit; apparent
Details: both partners purified

Kd: 6 µM
B1: EGFP-tagged ESPNL SFM peptide (peptide)
chain: IQEWGVSVRTLRGNFESASGPLC
modifications: Limits from translated primers P11/P12 (7 residues either side of SFM 652-660). Construct also has an initiator Met before the peptide and a C-terminal linker-EGFP-TEV-His, left out.
